These results are taken from article PMC10071571, “Site‐directed mutagenesis improves the practical application of L‐glutamic acid decarboxylase in Escherichia coli” (Engineering in Life Sciences, 2023).

For data set [1], the target named is T1, Gad B (Escherichia coli, UniProt P69910).
T1 construct: gene gadB; full length (1401 bp), pET-30a(+) His tag, expressed in E. coli BL21(DE3), Ni-NTA purified; about 53 kDa on SDS-PAGE; homo-hexamer
T1 sequence (P69910 1-466): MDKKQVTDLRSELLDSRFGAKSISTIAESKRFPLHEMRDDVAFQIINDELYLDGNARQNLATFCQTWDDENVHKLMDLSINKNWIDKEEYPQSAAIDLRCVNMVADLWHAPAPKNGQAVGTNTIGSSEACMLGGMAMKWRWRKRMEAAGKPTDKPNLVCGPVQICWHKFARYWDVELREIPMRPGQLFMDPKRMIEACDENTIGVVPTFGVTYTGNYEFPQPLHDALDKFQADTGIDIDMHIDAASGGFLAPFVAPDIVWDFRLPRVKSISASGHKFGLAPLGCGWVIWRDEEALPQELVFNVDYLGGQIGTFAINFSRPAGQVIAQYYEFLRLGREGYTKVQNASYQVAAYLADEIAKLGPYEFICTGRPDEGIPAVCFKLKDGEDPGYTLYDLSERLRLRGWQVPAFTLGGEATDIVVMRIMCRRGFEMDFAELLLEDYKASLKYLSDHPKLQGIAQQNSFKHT
Description: GABA formation at varied PLP concentration (HPLC). The settings on record: coenzyme added to L-glutamate reaction; no constant. The class given is biochemical.

The test system of data set [2] is T2, N[C@@H](CCC(=O)O)C(=O)O.
T2 construct: full length (1401 bp), pET-30a(+) His tag, expressed in E. coli BL21(DE3), Ni-NTA purified; about 53 kDa on SDS-PAGE; homo-hexamer
Kind of data set: HPLC of GABA formed; Lineweaver-Burk plot. The settings on record: substrate buffer with 0.05 mM PLP, phosphate buffer, 30 min, pH and temperature of the kinetics not given (optimum pH 4.3, 37 °C). It is filed as biochemical, Escherichia coli. An excerpt:
(§1) HPLC of GABA formed; Lineweaver-Burk plot on Gad B

Substrate in data set [3]: N[C@@H](CCC(=O)O)C(=O)O
Kind of data set: HPLC of GABA formed; Lineweaver-Burk plot. The class given is biochemical, Escherichia coli. To be noted: substrate buffer with 0.05 mM PLP, phosphate buffer, 30 min, pH and temperature of the kinetics not given (optimum pH 4.3, 37 °C).
Text: as §1

Consider `Cc1ncc(COP(=O)(O)O)c(C=O)c1O` [PLP], for which the “GABA formation at varied PLP concentration (HPLC)” value in data set [1] is “enzyme activity of wild‐type Gad B and Gad B‐T62S mutants was highest when using the coenzyme PLP”.

Gad B (Escherichia coli K-12; Q309A): in data set [2], the Km (as a rule, the substrate concentration at which the rate is half of its maximum) was 7.2 ± 3.8 mM and the Vmax – broadly, the rate approached at saturating substrate – was determined as 87.3 µmol/min/mg.

As to Gad B (Escherichia coli K-12; T62S), in data set [2], the Km is on record as 7.3 ± 2.5 mM and the Vmax is 76.1 µmol/min/mg.

B1: Gad B (Escherichia coli K-12) (protein)
chain: MDKKQVTDLRSELLDSRFGAKSISTIAESKRFPLHEMRDDVAFQIINDELYLDGNARQNLATFCQTWDDENVHKLMDLSINKNWIDKEEYPQSAAIDLRCVNMVADLWHAPAPKNGQAVGTNTIGSSEACMLGGMAMKWRWRKRMEAAGKPTDKPNLVCGPVQICWHKFARYWDVELREIPMRPGQLFMDPKRMIEACDENTIGVVPTFGVTYTGNYEFPQPLHDALDKFQADTGIDIDMHIDAASGGFLAPFVAPDIVWDFRLPRVKSISASGHKFGLAPLGCGWVIWRDEEALPQELVFNVDYLGGQIGTFAINFSRPAGQVIAQYYEFLRLGREGYTKVQNASYQVAAYLADEIAKLGPYEFICTGRPDEGIPAVCFKLKDGEDPGYTLYDLSERLRLRGWQVPAFTLGGEATDIVVMRIMCRRGFEMDFAELLLEDYKASLKYLSDHPKLQGIAQQNSFKHT
notes: full length (1401 bp), pET-30a(+) His tag, expressed in E. coli BL21(DE3), Ni-NTA purified; about 53 kDa on SDS-PAGE; homo-hexamer
As to B1, in data set [3], the Km turned out to be 11.3 ± 2.1 mM and the Vmax was 32.1 µmol/min/mg.
